Data as given in the supplement of paper PMC10567573.

B1: TFE3 (parent)
chain: FHLGLEDILMEEEEGVVGGLSGGA

Variants of: B1
Assay: protein stability index of a GFP-peptide fusion (GPS, HEK-293T) (PSI 1-6); higher = more stable
Settings: c terminus: a fixed tail appended
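Further: lentivirally expressed fusions sorted by FACS into six bins by GFP to DsRed ratio, PSI derived from sequencing read proportions per bin multiplied by bin number.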

Protein stability index, by site and new letter:
E14: R 3.55, S 2.83, D 3.82, L 2.67, H 2.54, P 3.53, V 2.53, G 2.94, T 3.25, A 3.17, C 2.73, I 2.22, N 2.72, K 3.34, F 1.78, W 1.43, M 2.27, Q 2.98, Y 2.39
G18: W 3.06, I 3.35, P 3.85, C 3.76, Y 3.23, T 3.5, M 3.6, V 3.93, R 3.72, N 3.77, K 2.99, S 3.27, L 3.3, E 4.1, D 4.06, Q 4.23, A 3.64, H 3.66, F 2.77
I8: A 4.33, S 4.28, E 4.72, L 3.78, Y 3.99, C 4.03, G 4.2, N 4.25, K 4.31, W 3.24, D 4.59, H 4.01, P 4.89, F 3.17, M 3.58, T 3.88, R 3.93, V 4.08, Q 4.28
G15: K 4.11, F 2.42, H 3.25, C 3.24, Q 4.23, V 3.64, M 3.05, Y 3.04, P 3.59, D 4.19, R 4.03, N 3.84, W 2.3, I 2.9, L 3.1, A 4.1, E 4.39, T 3.51, S 3.92
H2: Y 3.56, W 2.94
L20: C 3.91, D 4.92, I 4.08, K 4.55, A 4.74, N 4.59, H 4.24, G 3.98, F 4.09, E 4.99, M 3.19, P 3.79
V17: A 3.54, Y 3.03, Q 3.69, E 3.64, M 3.46, H 3.7, T 3.95, L 3.61, K 3.77, N 4.76, I 3.92, W 2.72, D 4.44, P 3.63, R 3.8, S 4.13, G 3.15, F 2.88, C 4.01
E11: Q 2.91, H 2.73, V 2.67, K 3.35, D 3.66, S 2.95, N 3.11, C 2.6, F 2.09, R 3.33, Y 2.38, L 2.2, G 2.61, W 2.57, I 2.08, P 2.7, T 2.97, M 1.82, A 3.08
M10: L 3.44, E 4.27, P 4.18, R 3.23, I 3.81, D 4.13, F 3.83, T 3.88, Q 4.34, Y 3.62, V 3.83, A 4, K 3.94, S 4.08, G 4.02, C 3.83, N 3.23, W 3.57, H 3.58
G19: Q 4.09, R 3.54, S 3.28, V 3.22, I 2.87, K 3.34, T 3.48, A 3.97, L 3.25, M 3.71, N 3.84, Y 2.67, H 3.47, W 2.18, E 4.32, F 2.69, C 3.43, P 3.52, D 4.69
E12: Y 2.63, T 3.72, F 2.14, I 2.51, N 3.01, R 2.47, M 2.29, H 3.09, Q 3.47, P 2.43, W 1.76, D 3.77, C 2.83, V 1.74, K 3.2, S 3.29, A 2.6, G 3.02
E6: F 2.33, V 2.34, P 3.02, N 2.73, I 1.88, M 1.93, K 2.68, D 3.58, A 2.67, W 2.02, Y 2.31, S 2.82, R 3.3, Q 3.31, G 2.58, H 2.86, L 3.26, T 3.04, C 2.55
L3: Q 4.22, I 4.07, R 4.14, N 4.17, E 5.06, F 3.92, S 3.5, Y 3.56, W 2.45, D 5.27, A 4.52, M 3.92, P 4.44, G 3.44, C 2.34, K 4.49, T 4.5, H 4.32, V 4.14
L5: Q 4.46, G 4.52, N 3.85, H 3.91, A 4.62, M 3.46, D 4.38, V 4.53, R 4.04, W 4.21, Y 3.21, S 4.37, T 4.23, E 4.96, P 3.59, C 4.36, F 3.16, I 3.7, K 3.76
V16: W 3.33, M 3.58, F 2.83, R 3.52, G 3.97, Q 4.29, I 4.12, L 2.77, S 3.82, T 4, N 3.68, H 3.76, E 4.3, D 4.07, C 4.07, Y 3.34, P 3.08, A 3.87
G4: E 4.89, S 3.94, D 3.99, V 2.13, T 3.08, K 2.23, A 2.97, P 3.05, Y 1.86, C 2.67, W 2.67, N 3.48, L 2.46, F 2.01, I 2.1, H 2.94, R 2.5, M 2.5, Q 3.54
E13: R 3.1, V 2.46, I 1.88, H 3.19, L 2.37, Q 3.4, P 2.41, M 2.15, C 2.16, T 3.34, D 3.3, N 3.55, Y 2.11, A 2.83, W 2.18, K 3.41, S 3.34, G 2.58, F 1.84
L9: D 4, A 4.22, E 4.57, S 3.69, R 4.5, Y 3.87, F 3.29, H 4.08, V 4.11, Q 4.39, C 4.06, P 4.21, K 4.17, I 3.7, W 2.66, T 4.37, N 4.33, M 4.1, G 4.43
D7: I 2.25, K 2.77, S 3.31, N 3.04, M 1.65, F 2.28, E 3.56, V 2.89, H 2.88, R 2.16, C 2.34, T 3, P 3.5, G 3.54, Y 1.57, Q 3.19, A 2.34, L 2.16
